{
  "source": "paper PMC9376891",
  "molecular_target": "Rae1(31-368)-Nup98(157-213) heterodimer (human), P78406",
  "experiment": "ITC",
  "data": [
    {"binder": "DEMDTHDPNQLRY (modifications not checked)", "note": "[VSV M NTE peptide]", "values": [
      {"measurement": "Kd", "result": 117, "unit": "µM"}
    ]}
  ]
}
